Results published in patent US20240368668A1, “SUBSTRATES AND BIOMARKERS OF ADAMTS7” (The Broad Institute, Inc., priority 2021, published 2024).
Square brackets hold non-standard residues; d marks the D form. Ends that are not written are not given here.

Target: T1, mouse ADAMTS7 (Mus musculus, UniProt Q68SA9)
T1 construct: Full-length mouse Adamts7 1-1857 (Uniprot Q68SA9, WT or E373Q catalytic mutant); expressed in transfected cells; host or cells: Human Coronary Artery Smooth Muscle Cells (HCA-SMC, Lonza), adenovirus 50 MOI
T1 sequence (Q68SA9 221-1657): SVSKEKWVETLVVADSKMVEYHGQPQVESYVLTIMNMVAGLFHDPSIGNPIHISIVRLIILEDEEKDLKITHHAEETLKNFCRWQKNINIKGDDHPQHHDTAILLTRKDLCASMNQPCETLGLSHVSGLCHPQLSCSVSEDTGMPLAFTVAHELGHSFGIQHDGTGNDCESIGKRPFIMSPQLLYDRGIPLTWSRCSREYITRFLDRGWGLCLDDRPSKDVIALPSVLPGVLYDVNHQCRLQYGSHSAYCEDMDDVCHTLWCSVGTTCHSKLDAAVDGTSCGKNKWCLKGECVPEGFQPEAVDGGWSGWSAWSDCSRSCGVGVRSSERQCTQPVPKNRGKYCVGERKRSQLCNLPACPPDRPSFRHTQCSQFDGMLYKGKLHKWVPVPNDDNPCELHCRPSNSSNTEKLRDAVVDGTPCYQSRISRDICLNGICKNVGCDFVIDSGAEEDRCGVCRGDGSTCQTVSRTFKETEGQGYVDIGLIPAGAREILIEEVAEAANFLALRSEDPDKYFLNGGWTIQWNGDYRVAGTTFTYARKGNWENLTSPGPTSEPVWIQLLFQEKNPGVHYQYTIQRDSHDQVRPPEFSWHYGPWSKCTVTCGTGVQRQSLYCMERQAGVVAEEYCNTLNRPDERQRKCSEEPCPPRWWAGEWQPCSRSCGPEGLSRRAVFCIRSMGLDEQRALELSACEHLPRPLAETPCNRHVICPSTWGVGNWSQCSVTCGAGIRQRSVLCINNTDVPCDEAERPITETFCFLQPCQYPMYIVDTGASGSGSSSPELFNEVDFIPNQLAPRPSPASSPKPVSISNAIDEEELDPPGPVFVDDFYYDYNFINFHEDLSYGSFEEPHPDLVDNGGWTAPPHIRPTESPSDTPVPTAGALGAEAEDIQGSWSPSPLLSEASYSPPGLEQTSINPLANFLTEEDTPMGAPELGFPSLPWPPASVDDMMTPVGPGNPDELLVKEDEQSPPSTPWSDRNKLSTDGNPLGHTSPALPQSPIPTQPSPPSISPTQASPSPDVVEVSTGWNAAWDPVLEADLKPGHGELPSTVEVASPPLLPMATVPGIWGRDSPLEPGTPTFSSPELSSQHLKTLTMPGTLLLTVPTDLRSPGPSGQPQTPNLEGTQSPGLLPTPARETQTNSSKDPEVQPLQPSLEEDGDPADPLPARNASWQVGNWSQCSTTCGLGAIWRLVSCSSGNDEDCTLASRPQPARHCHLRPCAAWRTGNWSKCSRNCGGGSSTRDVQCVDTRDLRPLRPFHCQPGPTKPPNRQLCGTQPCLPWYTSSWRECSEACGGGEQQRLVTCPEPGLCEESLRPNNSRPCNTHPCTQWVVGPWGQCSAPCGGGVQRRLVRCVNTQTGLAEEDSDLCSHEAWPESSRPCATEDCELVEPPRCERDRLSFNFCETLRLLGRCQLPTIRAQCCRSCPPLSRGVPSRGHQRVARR
Assay: TMT10 TAILS N-terminomics, SMC2 experiment (process replicates, trypsin/AspN digest)
Assay type: cell-based
Details: for logFC.mWT.over.Luc: SMC2_TAILS HC; for logFC.mWT.over.Lux: ADAMTS7 WT over luciferase
Summary of the method: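 Full-length mouse ADAMTS7 (WT or E373Q mutant, C-terminal 3xFLAG) or luciferase was transduced via adenovirus, 50 MOI, into HCA-SMC (SMC1, SMC2) or HUVEC. SMC1: pooled media, technical triplicates 400 ug; SMC2: process triplicates 300 ug; HUVEC: process triplicates 200 ug, bFGF2 10 ng/ml.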

[1] = log fold change of N-terminal peptide, Ad-mADAMTS7 WT over Luc

Substance | logFC.mWT.over.Luc (log fold change, mWT over Luc) | logFC.mWT.over.Lux (log fold change) | also measured
ACTG1_105 (LTEAPLNPKANR; listed as Homo sapiens) | 1.80 |  | 
ACTN4_5 (HAANQSYQYGPSSAGNGAGGGGSMG; listed as Homo sapiens) | 2.65 |  | 
ADAM9_74 (GKEHIIHLER; listed as Homo sapiens) | 4.13 |  | 
ADAM10_86 (FKVETSNKVL; listed as Homo sapiens) | 2.45 |  | 
ADNP2_375 (SQPVGPVNK; listed as Homo sapiens) | 5.35 |  | 
AMER2_654 (LAGTTIRATACH; listed as Homo sapiens) | 0.95 |  | 
APLP2_452 (LVETHLAR; listed as Homo sapiens) | 2.70 |  | 
APOA1_86 (EQLGPVTQEFW; listed as Homo sapiens) | 1.80 |  | 
BMPER_43 (LTGSVAKCENEG; listed as Homo sapiens) | 2.37 |  | 
CALU_176 (FTAFLHPEEY; listed as Homo sapiens) | 2.37 |  | 
CAP1_300 (FSAPKPQTSPSPKR; listed as Homo sapiens) | 2.91 |  | 
CCL2_28 (INAPVTCCYNFTNR; listed as Homo sapiens) | 1.35 |  | 
CEP192_728 (DKSTAGR; listed as Homo sapiens) | 2.33 |  | 
CTSB_109 (WAFGAVEAIS; listed as Homo sapiens) | 1.65 |  | 
DBN1_434 (APVEPATA; listed as Homo sapiens) | 1.61 |  | 
DIS3L_75 (FPELKGIIFMQTACQAVQHQR; listed as Homo sapiens) | 1.77 |  | 
ECM1_38 (FQEVGYAAPPSPPLSR; listed as Homo sapiens) | 1.54 |  | 
ECM1_44 (AAPPSPPLSR; listed as Homo sapiens) | 2.25 |  | 
ECM1_108 (QEAVPLQK; listed as Homo sapiens) | 3.12 |  | 
EEF1G_23 (QYSGAQVR; listed as Homo sapiens) | 3.18 |  | 
EIF4B_426 (QTGTSTTSSR; listed as Homo sapiens) | 5.61 |  | 
EMSY_943 (QTVVQVLAVK; listed as Homo sapiens) | 1.13 |  | 
FBLN2_665 (FSQVASNTIPLPLPQPNTCK; listed as Homo sapiens) | 1.74 |  | 
FLNA_689 (VNKPAEFTV; listed as Homo sapiens) | 4.67 |  | 

Substance | logFC.mWT.over.Luc (log fold change, mWT over Luc) | logFC.mWT.over.Lux (log fold change) | also measured
FLNC_2649 (FVGQKNSFTV; listed as Homo sapiens) | 3.91 |  | 
FN1_35 ([code q]MVQPQSPVAVSQSKPGCY; not fully specified (residue 2); listed as Homo sapiens) | 1.99 |  | 
FN1_99 (DKYTGNTYR; listed as Homo sapiens) | 1.35 |  | 
FN1_607 (SSSGPVEVFIT; listed as Homo sapiens) | 1.08 |  | 
FN1_1693 (LQPTVEYVVSVYAQNPSG; listed as Homo sapiens) | 1.99 |  | 
FN1_1780 (LQGLRPGSEYTVSVVALH; listed as Homo sapiens) | 1.67 |  | 
FN1_1805 (LIGTQSTAIPAPT; listed as Homo sapiens) | 2.43 |  | 
FN1_2113 (FVTHPGY; listed as Homo sapiens) | 1.38 |  | 
FOXG1_235 (LNKCFVKVPRHY; listed as Homo sapiens) | 3.42 |  | 
FSTL_1290 (LQKHQETA; listed as Homo sapiens) | 2.58 |  | 
HEG1_51 (GLELQLER; listed as Homo sapiens) | 0.90 |  | 
HEG1_224 (FQTKSGTAS; listed as Homo sapiens) | 3.54 |  | 
KCND1_436 (RLAKSGTTNAFLQYKQNGGLE; listed as Homo sapiens) | 1.60 |  | 
KRT28_2 (SLQFSNGSR; listed as Homo sapiens) | 1.88 |  | 
LASP1_182 (SYGGYKEPAAPVSIQR; listed as Homo sapiens) | 0.87 |  | 
LOXL1_157 (SVSASAFASTYR; listed as Homo sapiens) | 2.71 |  | 
LOX_60 (LGSQYQPQR; listed as Homo sapiens) | 1.25 |  | 
LOX_125 (FQAGYSTSR; listed as Homo sapiens) | 3.45 |  | 
QSOX1_558 (VAAAPELAMGALELESR; listed as Homo sapiens) |  | 0.94 | 
SDC4_106 (LEENEVIPKR; listed as Homo sapiens) |  | 1.32 | 
SERPINH1_27 (AAAPGTAEKLSPKAATLAER; listed as Homo sapiens) |  | 2.62 | 
SMOC1_35 (LISDRDPQCNLHCSR; listed as Homo sapiens) |  | 1.75 | 
SPOCK1_126 (HWVGPSNLVK; listed as Homo sapiens) |  | 1.29 | 
SRGN_50 (LEEKGPMFELLPGESNKIPR; listed as Homo sapiens) |  | 3.21 | 

Substance | logFC.mWT.over.Luc (log fold change, mWT over Luc) | logFC.mWT.over.Lux (log fold change) | also measured
SRGN_51 (EEKGPMFELLPGESNKIPR; listed as Homo sapiens) |  | 1.66 | 
SRGN_60 (LPGESNKIPR; listed as Homo sapiens) |  | 3.57 | 
SRGN_62 (GESNKIPR; listed as Homo sapiens) |  | 2.82 | 
STC1_37 (QNSAEVVR; listed as Homo sapiens) |  | 4.56 | 
STC2_239 (HGEAGHHLPEPSSR; listed as Homo sapiens) |  | 1.59 | 
STC2_244 (HHLPEPSSR; listed as Homo sapiens) |  | 1.09 | 
TGFBI_24 (GPAKSPYQLVLQHSR; listed as Homo sapiens) |  | 0.77 | 
TGFBI_43 ([code q]HGPNVCAVQKVIGTNR; not fully specified; listed as Homo sapiens) |  | 0.85 | 
TGFBI_50 (AVQKVIGTNR; listed as Homo sapiens) |  | 0.96 | 
TGFBI_208 (GIVTVNCAR; listed as Homo sapiens) |  | 0.89 | 
TGFBI_276 (TLLAPT[code n]EAFEKIPSETLNR; not fully specified; listed as Homo sapiens) |  | 0.75 | 
TGFBI_497 (VLTPPMGTVMDVLKGDNR; not fully specified (residue 6); listed as Homo sapiens) |  | 0.75 | 
TGFBI_524 (SAGLTETLNR; listed as Homo sapiens) |  | 0.84 | 
TGFBI_534 (EGVYTVFAPTNEAFR; listed as Homo sapiens) |  | 0.91 | 
TG_1017 (GASALLR; listed as Homo sapiens) |  | 4.08 | 
THBS1_972 (QNDPNWVVR; listed as Homo sapiens) |  | 3.55 | 
TLN1_1501 (HTSALCNSCR; listed as Homo sapiens) |  | 1.31 | 
TMEM132A_52 (LLDAPEHFR; listed as Homo sapiens) |  | 2.65 | 
VASN_138 (HIQPGAFDTLDR; listed as Homo sapiens) |  | 1.63 | 
VASP_229 (AIAGAKLR; listed as Homo sapiens) |  | 4.48 | 
VCAN_3367 (FKNSSSAK; listed as Homo sapiens) |  |  | logFC.mWT.over.Luc [1]: 0.79
VIM_276 (YESVAAKNLQ; listed as Homo sapiens) |  |  | logFC.mWT.over.Luc [1]: 0.88
